The term Kd denotes the constant that tells how readily two partners part at equilibrium. One may read the koff as a measure of how fast the partners let go of each other. A high value points to a short-lived complex.

Experiment [1] addresses T1, human VEGF (human), P15692.
T1 chain: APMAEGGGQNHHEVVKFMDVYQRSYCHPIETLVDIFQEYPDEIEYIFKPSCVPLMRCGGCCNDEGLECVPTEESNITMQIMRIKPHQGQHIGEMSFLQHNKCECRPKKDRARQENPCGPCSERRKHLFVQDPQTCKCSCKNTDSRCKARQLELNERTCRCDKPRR
Description: Biacore SPR, Fab captured by anti-light chain antibody, VEGF as analyte. The note with it: remark: other sources report otherwise.

For experiment [2], the target named is T1, human VEGF (human), P15692. As to the kind of experiment: Biacore. The note with it: bispecific antibody; chains VL:VH; remark: other sources report otherwise.

B1: VH6L (bispecific antibody, V domains shown)
VL: NIQKTQSPSSLSASVGDRVTITCRALWHISSYLAWYQQKPGKAPKLLIYAASHLHYGVPSRFSGSGSGTDFTLTISSLQPEDFATYYCQQYSGLPYTFGQGTKVEIK
VH: YYQLVESGGGLVQPGGSLRLSCAADGFLFSGYAMSWIRQAPGKGLEWIGQISGSGGSTVYNYNVLGRFTISRDNSKNTLYLQMNSLRAEDTAVYYCARDTGYFDHWGQGTLVTVSS
B1 displayed a Kd in experiment [1] of 7.8 nM. Also, the koff in experiment [2] was determined as 0.000738 s⁻¹.

The record behind these values is patent US20140206846A1.
